According to patent publication US20080194019:

Legend:
[1] = target: FLAG-tagged tuberin (UniProt P49815)
[2] = tested on: MBP-AMPKa (1-312) bacterial fusion protein
[3] = tested on: SAMS peptide

FLAG-tagged tuberin, sequence (P49815 whole entry, the tested form may be a part): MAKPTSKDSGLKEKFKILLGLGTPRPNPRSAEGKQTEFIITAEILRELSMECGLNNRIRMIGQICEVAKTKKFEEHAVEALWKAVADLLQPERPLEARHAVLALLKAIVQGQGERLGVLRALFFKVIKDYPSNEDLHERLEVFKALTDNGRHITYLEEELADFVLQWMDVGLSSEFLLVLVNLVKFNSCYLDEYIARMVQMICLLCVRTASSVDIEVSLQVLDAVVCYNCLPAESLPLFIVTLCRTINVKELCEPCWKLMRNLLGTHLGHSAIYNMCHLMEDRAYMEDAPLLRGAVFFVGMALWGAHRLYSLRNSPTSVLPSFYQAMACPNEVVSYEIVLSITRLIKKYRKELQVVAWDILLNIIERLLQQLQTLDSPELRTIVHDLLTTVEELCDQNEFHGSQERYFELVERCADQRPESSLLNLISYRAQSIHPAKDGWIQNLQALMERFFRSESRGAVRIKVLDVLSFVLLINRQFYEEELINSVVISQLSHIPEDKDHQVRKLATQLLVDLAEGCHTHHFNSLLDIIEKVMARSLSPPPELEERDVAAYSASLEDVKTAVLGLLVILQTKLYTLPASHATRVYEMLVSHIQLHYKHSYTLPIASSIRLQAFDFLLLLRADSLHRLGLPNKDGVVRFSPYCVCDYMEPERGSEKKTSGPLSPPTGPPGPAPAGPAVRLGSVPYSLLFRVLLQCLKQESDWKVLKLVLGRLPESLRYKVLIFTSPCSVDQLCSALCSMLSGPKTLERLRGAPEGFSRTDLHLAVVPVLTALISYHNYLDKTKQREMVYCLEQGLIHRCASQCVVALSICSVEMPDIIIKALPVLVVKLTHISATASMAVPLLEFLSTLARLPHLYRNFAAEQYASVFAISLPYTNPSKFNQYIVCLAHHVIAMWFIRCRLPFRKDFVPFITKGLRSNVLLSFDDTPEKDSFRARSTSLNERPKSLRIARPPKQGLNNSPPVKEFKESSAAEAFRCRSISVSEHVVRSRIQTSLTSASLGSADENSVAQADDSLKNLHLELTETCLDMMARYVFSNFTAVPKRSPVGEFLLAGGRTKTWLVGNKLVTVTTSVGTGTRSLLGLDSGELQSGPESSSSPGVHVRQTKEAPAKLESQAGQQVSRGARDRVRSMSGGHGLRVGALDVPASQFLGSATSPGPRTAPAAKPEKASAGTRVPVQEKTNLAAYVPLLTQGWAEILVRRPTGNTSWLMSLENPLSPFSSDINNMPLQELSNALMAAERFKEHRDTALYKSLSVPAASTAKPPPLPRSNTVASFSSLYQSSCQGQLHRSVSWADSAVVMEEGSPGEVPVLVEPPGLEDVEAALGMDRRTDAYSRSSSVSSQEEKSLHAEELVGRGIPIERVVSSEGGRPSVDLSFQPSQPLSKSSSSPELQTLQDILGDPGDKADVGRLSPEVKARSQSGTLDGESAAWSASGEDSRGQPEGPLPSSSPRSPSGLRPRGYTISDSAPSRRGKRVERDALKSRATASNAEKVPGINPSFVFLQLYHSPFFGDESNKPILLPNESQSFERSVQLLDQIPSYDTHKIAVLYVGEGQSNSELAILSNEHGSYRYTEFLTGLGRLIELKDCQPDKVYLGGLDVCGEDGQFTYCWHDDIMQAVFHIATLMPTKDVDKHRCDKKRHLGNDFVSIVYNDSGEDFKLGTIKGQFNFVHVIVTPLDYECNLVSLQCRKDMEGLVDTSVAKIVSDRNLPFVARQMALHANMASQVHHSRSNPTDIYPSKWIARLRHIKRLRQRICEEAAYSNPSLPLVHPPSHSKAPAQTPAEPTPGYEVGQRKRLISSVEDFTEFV

Substance: Active recombinant AMPK (Upstate Biotechnology)
- in vitro phosphorylation of tuberin; mobility shift on low percentage SDS-PAGE [1]: when tuberin was stoichiometrically phosphorylated by AMPK, it underwent a mobility shift

Substance: Active recombinant Akt (Upstate Biotechnology)
- in vitro phosphorylation of tuberin; mobility shift on low percentage SDS-PAGE [1]: This mobility shift in tuberin was not observed when tuberin was phosphorylated by active recombinant Akt, even at levels of tuberin phosphorylation comparable to those induced by AMPK

Substance: Kinase-inactive LKB1 (K78I) coexpressed with STRAD, Flag immunoprecipitate
- AMPK kinase activity towards the SAMS peptide after in vitro kinase reaction with LKB1 [2]: Kinase-inactive LKB1 alone or coexpressed with STRAD was unable to activate AMPK

Substance: MBP-AMPKa (1-312) bacterial fusion protein
- in vitro phosphorylation of FLAG-tagged tuberin by recombinant AMPK pre-activated with wild-type LKB1 [1]: AMPK activated by wild-type LKB1 directly phosphorylated tuberin in vitro
- phosphorylation of the SAMS peptide by unphosphorylated MBP-AMPK [3]: bacterial MBP-AMPK is inactive towards the peptide
